In PMC3197598:

Target: fibrin (human fibrinogen treated with alpha-thrombin) (human) (UniProt P02679)
Assay: ELISA; human fibrinogen coated overnight on MaxSorb 96-well plates, wells treated with PBS (fibrinogen) or 100 nM alpha-thrombin in 1% sodium-citrate/PBS for one hour at room temperature (fibrin); ClfA in 1% sodium-citrate added at increasing concentrations for one hour; bound ClfA detected with polyclonal anti-ClfA and anti-rabbit-HRP; non-linear regression, one-site saturation

clumping factor A (ClfA), purified recombinant, sequence (Q53653 40-899): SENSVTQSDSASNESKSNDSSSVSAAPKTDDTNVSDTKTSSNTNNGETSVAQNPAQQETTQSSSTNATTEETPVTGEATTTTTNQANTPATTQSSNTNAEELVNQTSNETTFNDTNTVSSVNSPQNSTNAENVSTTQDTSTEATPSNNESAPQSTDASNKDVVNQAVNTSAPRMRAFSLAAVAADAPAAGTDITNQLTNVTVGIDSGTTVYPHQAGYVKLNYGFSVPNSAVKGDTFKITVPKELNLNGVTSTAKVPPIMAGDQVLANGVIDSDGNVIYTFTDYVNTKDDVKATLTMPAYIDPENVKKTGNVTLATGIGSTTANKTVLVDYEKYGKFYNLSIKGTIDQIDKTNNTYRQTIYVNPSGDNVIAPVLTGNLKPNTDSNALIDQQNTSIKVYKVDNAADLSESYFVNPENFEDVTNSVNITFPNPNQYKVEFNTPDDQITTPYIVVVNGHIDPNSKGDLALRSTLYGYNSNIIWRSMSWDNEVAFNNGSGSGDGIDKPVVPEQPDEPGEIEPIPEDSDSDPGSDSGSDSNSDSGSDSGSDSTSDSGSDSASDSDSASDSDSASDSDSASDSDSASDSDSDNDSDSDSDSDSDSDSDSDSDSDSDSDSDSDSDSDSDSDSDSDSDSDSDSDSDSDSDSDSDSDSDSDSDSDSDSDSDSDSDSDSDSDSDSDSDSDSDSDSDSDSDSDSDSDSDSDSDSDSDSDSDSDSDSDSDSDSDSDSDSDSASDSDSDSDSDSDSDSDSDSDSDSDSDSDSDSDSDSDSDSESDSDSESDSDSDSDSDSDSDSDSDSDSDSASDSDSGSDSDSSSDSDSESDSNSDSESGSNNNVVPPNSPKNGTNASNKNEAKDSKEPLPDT

Substance: clumping factor A (ClfA), purified recombinant (from UniProt Q53653 40-899) (natural protein)
- Kd: 662 nM
